Assay results: article PMC9482650, “Quantitative fragmentomics allow affinity mapping of interactomes” (Nature Communications, 2022)
Blank lines part the entries; values can stand above or below the binder they belong to.

Assays:
Assay in all cases: holdup assay
Parameters in all cases: key: below the threshold = too weak to quantify, mostly under pKd 3.1 to 4
DLG4_2, P78352 = target: DLG4_2, P78352
MAGI1_2, Q96QZ7 = target: MAGI1_2, Q96QZ7
PARD3B_1, Q8TEW8 = target: T1, PARD3B_1, Q8TEW8
T1 sequence (Q8TEW8 196-299, limits assumed, looked up): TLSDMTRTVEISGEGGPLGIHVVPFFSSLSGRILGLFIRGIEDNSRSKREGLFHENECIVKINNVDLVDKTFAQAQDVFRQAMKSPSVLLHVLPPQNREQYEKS

SNTG1, Q9NSN8 = target: T2, SNTG1, Q9NSN8
T2 sequence (Q9NSN8 52-150, limits assumed, looked up): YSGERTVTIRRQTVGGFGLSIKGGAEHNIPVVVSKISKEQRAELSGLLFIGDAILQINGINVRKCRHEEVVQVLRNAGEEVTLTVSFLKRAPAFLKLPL

PDZRN4_1, Q6ZMN7 = target: PDZRN4_1, Q6ZMN7
Sequence of PDZRN4_1, Q6ZMN7 (Q6ZMN7 213-318): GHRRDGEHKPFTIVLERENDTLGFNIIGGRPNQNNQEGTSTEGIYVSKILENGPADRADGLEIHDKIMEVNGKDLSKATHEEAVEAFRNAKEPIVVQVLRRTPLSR

APBA3_1, O96018 = target: T3, APBA3_1, O96018
T3 sequence (O96018 389-490, limits assumed, looked up): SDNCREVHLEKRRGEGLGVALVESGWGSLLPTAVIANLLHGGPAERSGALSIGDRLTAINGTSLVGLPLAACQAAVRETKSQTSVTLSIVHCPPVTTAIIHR

MPDZ_10, O75970 = target: T4, MPDZ_10, O75970
T4 sequence (O75970 1624-1722, limits assumed, looked up): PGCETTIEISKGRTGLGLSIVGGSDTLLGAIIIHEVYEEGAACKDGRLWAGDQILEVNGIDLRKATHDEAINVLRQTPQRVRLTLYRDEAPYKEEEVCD

GRID2IP_1, A4D2P6 = target: GRID2IP_1, A4D2P6
Sequence of GRID2IP_1, A4D2P6 (A4D2P6 1-87): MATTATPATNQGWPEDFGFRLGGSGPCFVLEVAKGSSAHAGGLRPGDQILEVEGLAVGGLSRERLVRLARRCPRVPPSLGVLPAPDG

PDZD7_3, Q9H5P4 = target: T5, PDZD7_3, Q9H5P4
T5 sequence (Q9H5P4 857-944, limits assumed, looked up): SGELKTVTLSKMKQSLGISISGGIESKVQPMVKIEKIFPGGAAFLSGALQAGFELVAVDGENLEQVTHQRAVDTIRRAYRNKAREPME

MPDZ_5, O75970 = target: T6, MPDZ_5, O75970
T6 sequence (O75970 695-796, limits assumed, looked up): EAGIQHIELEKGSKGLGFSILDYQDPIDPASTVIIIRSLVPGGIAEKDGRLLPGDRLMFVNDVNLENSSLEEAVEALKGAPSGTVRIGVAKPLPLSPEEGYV

MAGI2_4, Q86UL8 = target: MAGI2_4, Q86UL8
Sequence of MAGI2_4, Q86UL8 (Q86UL8 772-865): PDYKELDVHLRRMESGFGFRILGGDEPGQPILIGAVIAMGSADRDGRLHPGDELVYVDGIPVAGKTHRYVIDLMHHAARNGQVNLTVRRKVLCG

FRMPD2_3, Q68DX3 = target: FRMPD2_3, Q68DX3
Sequence of FRMPD2_3, Q68DX3 (Q68DX3 1073-1166): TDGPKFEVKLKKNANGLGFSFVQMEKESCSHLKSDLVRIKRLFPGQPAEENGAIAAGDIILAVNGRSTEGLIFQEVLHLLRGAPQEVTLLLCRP

PCLO, Q9Y6V0 = target: T7, PCLO, Q9Y6V0
T7 sequence (Q9Y6V0 4491-4600, limits assumed, looked up): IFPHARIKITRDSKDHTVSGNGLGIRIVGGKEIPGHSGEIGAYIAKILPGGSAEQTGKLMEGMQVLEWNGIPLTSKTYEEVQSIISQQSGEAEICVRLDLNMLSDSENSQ

SHANK1, Q9Y566 = target: T8, SHANK1, Q9Y566
T8 sequence (Q9Y566 658-767, limits assumed, looked up): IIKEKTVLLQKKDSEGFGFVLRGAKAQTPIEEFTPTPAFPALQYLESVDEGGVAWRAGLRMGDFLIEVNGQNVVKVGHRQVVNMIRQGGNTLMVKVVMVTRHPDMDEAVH

CASK, O14936 = target: CASK, O14936
Sequence of CASK, O14936 (O14936 487-570): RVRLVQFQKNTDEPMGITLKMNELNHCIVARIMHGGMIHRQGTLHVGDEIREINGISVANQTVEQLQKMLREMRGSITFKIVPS

SNTA1, Q13424 = target: T9, SNTA1, Q13424
T9 sequence (Q13424 82-180, limits assumed, looked up): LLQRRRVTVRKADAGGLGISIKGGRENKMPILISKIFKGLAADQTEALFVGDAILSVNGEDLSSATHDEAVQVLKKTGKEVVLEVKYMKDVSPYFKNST

LNX1_1, Q8TBB1 = target: LNX1_1, Q8TBB1
Sequence of LNX1_1, Q8TBB1 (Q8TBB1 261-371): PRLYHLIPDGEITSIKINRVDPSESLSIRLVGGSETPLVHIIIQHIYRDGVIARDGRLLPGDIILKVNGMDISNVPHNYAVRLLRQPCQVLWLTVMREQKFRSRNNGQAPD

RADIL, Q96JH8 = target: T10, RADIL, Q96JH8
T10 sequence (Q96JH8 971-1071, limits assumed, looked up): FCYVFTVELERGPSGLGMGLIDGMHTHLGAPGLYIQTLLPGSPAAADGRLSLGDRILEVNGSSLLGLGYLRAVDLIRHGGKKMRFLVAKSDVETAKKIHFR

GRIP1_3, Q9Y3R0 = target: T11, GRIP1_3, Q9Y3R0
T11 sequence (Q9Y3R0 247-346, limits assumed, looked up): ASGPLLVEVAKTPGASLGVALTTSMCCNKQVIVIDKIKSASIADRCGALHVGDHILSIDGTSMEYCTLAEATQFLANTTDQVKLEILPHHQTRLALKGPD

IL16_1, Q14005 = target: IL16_1, Q14005
Sequence of IL16_1, Q14005 (Q14005 210-306): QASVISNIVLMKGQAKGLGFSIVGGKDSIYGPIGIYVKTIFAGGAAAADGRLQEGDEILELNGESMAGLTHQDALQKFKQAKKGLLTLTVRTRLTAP

DVL3, Q92997 = target: T12, DVL3, Q92997
T12 sequence (Q92997 244-331, limits assumed, looked up): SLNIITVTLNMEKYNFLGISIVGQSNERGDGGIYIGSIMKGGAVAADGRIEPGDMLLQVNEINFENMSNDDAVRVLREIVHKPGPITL

LIMK2, P53671 = target: LIMK2, P53671
Sequence of LIMK2, P53671 (P53671 143-248): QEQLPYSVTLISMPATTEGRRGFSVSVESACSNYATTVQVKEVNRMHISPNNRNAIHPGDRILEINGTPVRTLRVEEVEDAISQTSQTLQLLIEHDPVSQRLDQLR

Inadl_3, Q8NI35 = target: Inadl_3, Q8NI35
Sequence of Inadl_3, Q8NI35 (Q8NI35 359-469): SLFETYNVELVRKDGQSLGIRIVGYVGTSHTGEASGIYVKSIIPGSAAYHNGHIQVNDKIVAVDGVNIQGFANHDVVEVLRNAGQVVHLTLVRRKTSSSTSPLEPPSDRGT

LNX2_2, Q8N448 = target: T13, LNX2_2, Q8N448
T13 sequence (Q8N448 334-432, limits assumed, looked up): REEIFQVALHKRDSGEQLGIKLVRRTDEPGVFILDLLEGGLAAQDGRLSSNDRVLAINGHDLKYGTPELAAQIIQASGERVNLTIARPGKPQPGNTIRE

[1] = plain residues with an end cap or a label only (N-terminal biotin on a linker: ado-ado)
[2] = modified: phospho on S at position -3 from the C-terminal residue

Sequence of MAGI1_2, Q96QZ7 (Q96QZ7 456-580): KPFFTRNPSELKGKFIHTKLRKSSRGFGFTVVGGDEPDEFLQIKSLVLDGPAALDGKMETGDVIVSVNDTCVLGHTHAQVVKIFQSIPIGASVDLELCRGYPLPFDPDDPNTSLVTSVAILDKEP
Sequence of DLG4_2, P78352 (P78352 155-259): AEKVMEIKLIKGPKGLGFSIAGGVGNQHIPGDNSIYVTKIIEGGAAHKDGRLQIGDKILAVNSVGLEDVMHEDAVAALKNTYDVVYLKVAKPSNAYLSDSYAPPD

pKd (DLG4_2, P78352; [1]): below the threshold | pKd (MAGI1_2, Q96QZ7; [1]): below the threshold | pKd (PARD3B_1, Q8TEW8; [1]): 4.95 | pKd (SNTG1, Q9NSN8; [1]): 3.63 | pKd (PDZRN4_1, Q6ZMN7; [1]): below the threshold | pKd (APBA3_1, O96018; [1]): below the threshold | pKd (MPDZ_10, O75970; [1]): below the threshold | pKd (GRID2IP_1, A4D2P6; [1]): below the threshold | pKd (PDZD7_3, Q9H5P4; [1]): below the threshold | pKd (MPDZ_5, O75970; [1]): below the threshold | pKd (MAGI2_4, Q86UL8; [1]): below the threshold | pKd (FRMPD2_3, Q68DX3; [1]): below the threshold | pKd (PCLO, Q9Y6V0; [1]): below the threshold | pKd (SHANK1, Q9Y566; [1]): below the threshold | pKd (CASK, O14936; [1]): below the threshold | pKd (SNTA1, Q13424; [1]): below the threshold | pKd (LNX1_1, Q8TBB1; [1]): below the threshold | pKd (RADIL, Q96JH8; [1]): 3.9 | pKd (GRIP1_3, Q9Y3R0; [1]): below the threshold | pKd (IL16_1, Q14005; [1]): below the threshold | pKd (DVL3, Q92997; [1]): below the threshold | pKd (LIMK2, P53671; [1]): below the threshold | pKd (Inadl_3, Q8NI35; [1]): 5.08 | pKd (LNX2_2, Q8N448; [1]): 5.03
Binder: PDGEMMEVLI [AMOTL1, Q8IY63]

pKd (DLG4_2, P78352; [2]): below the threshold | pKd (MAGI1_2, Q96QZ7; [2]): below the threshold | pKd (PARD3B_1, Q8TEW8; [2]): 4.62 | pKd (SNTG1, Q9NSN8; [2]): 3.94 | pKd (PDZRN4_1, Q6ZMN7; [2]): 3.98 | pKd (APBA3_1, O96018; [2]): below the threshold | pKd (MPDZ_10, O75970; [2]): below the threshold | pKd (GRID2IP_1, A4D2P6; [2]): below the threshold | pKd (PDZD7_3, Q9H5P4; [2]): 3.72 | pKd (MPDZ_5, O75970; [2]): below the threshold | pKd (MAGI2_4, Q86UL8; [2]): below the threshold | pKd (FRMPD2_3, Q68DX3; [2]): below the threshold | pKd (PCLO, Q9Y6V0; [2]): below the threshold | pKd (SHANK1, Q9Y566; [2]): below the threshold | pKd (CASK, O14936; [2]): below the threshold | pKd (SNTA1, Q13424; [2]): 4.4 | pKd (LNX1_1, Q8TBB1; [2]): below the threshold | pKd (RADIL, Q96JH8; [2]): below the threshold | pKd (GRIP1_3, Q9Y3R0; [2]): below the threshold | pKd (IL16_1, Q14005; [2]): below the threshold | pKd (DVL3, Q92997; [2]): below the threshold | pKd (LIMK2, P53671; [2]): below the threshold | pKd (Inadl_3, Q8NI35; [2]): below the threshold | pKd (LNX2_2, Q8N448; [2]): below the threshold
Binder: RRVRKLPSTTL [RPS6KA1_-3P, Q15418]

pKd (DLG4_2, P78352; [1]): 3.98 | pKd (MAGI1_2, Q96QZ7; [1]): 4.43 | pKd (PARD3B_1, Q8TEW8; [1]): 4.32 | pKd (SNTG1, Q9NSN8; [1]): below the threshold | pKd (PDZRN4_1, Q6ZMN7; [1]): 3.75 | pKd (APBA3_1, O96018; [1]): below the threshold | pKd (MPDZ_10, O75970; [1]): below the threshold | pKd (GRID2IP_1, A4D2P6; [1]): below the threshold | pKd (PDZD7_3, Q9H5P4; [1]): 3.99 | pKd (MPDZ_5, O75970; [1]): below the threshold | pKd (MAGI2_4, Q86UL8; [1]): 3.91 | pKd (FRMPD2_3, Q68DX3; [1]): below the threshold | pKd (PCLO, Q9Y6V0; [1]): below the threshold | pKd (SHANK1, Q9Y566; [1]): below the threshold | pKd (CASK, O14936; [1]): below the threshold | pKd (SNTA1, Q13424; [1]): 3.59 | pKd (LNX1_1, Q8TBB1; [1]): below the threshold | pKd (RADIL, Q96JH8; [1]): 3.57 | pKd (GRIP1_3, Q9Y3R0; [1]): below the threshold | pKd (IL16_1, Q14005; [1]): below the threshold | pKd (DVL3, Q92997; [1]): below the threshold | pKd (LIMK2, P53671; [1]): below the threshold | pKd (Inadl_3, Q8NI35; [1]): below the threshold | pKd (LNX2_2, Q8N448; [1]): below the threshold
Binder: WRSKRTDTLL [RAMP3, O60896]
